According to the supplement of paper PMC9170038:

System: MS2 coat protein
Test: apparent KD of MS2 coat protein; designed switch direction (-1 OFF switch, 1 ON switch): 1; higher = weaker reporter binding
Procedure, shortened: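 An oligonucleotide input, 200 uM small-molecule ligand, or no input was present during titration of SNAP-549-labelled MS2 coat protein, which was doubled from 0.7 or 1.5 nM to 3 µM. Designed RNA switches had been transcribed on Illumina chips by stalled E. coli RNA polymerase. Apparent KD per design is the median over clusters of curves fitted to normalised cluster fluorescence.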

[1] = input ligand: microRNA oligo, concentration not stated
[2] = Eterna round: R95, input ligand: FMN 200 uM
[3] = Eterna round: R95, input ligand: microRNA oligo, concentration not stated
[4] = Eterna round: R95, input ligand: none

| Sequence | apparent KD of MS2 coat protein (input ligand: FMN 200 uM) [µM] | apparent KD of MS2 coat protein [1] [µM] | apparent KD of MS2 coat protein (input ligand: none) [µM] | apparent KD of MS2 coat protein [2] [µM] | apparent KD of MS2 coat protein [3] [µM] | apparent KD of MS2 coat protein [4] [µM] |
| --- | --- | --- | --- | --- | --- | --- |
| GCUCGUAUGAUGACCGACAUGAGGAUCACCCAUGUAUGUUGGUAGGAUAUCUAUAUUAAGGAUAUAGAGAAGGGCCGAACGAGC [SameState NG3 #15] (Eterna round: R96, puzzle: Same State NG 3) | 0.0265 | 0.0336 | 0.0401 |  |  |  |
| GACCGCGAGGAAGGAUAUGGAGCCUUAUUGGCUCCAGAAGGUCCAUAAAGGACAUGAGGAUCACCCAUGUGGUGAGAAGCGGUC [Fiskers NG1ss - 27] (Eterna round: R96, puzzle: Same State NG 1) |  | 0.788 |  |  |  |  |
| GUGGUGGGUUGAGGAUAUUGGUUGUUGUUGUUCUACAUGAGGAUCACCCAUGUGGGUUGUGGUUUUGAGAAGGUUGGUUGCUGG [salish99_SSNG2_r04_049] (Eterna round: R96, puzzle: Same State NG 2) | 0.0452 | 0.0313 | 0.0428 |  |  |  |
| AGUCCAGCCUAAGCUGGACAAAAGCAUGUACAUGAGGAUCACCCAUGUUCAUGUACAAGCUUUUUGCUCGUCAAAAG [Mat - hsa-mir-208a - Mod of JL - 68] (puzzle: Sensor for hsa-mir-208a) |  |  |  | 0.194 | 0.0196 | 0.242 |
| GCUUCACAUGAGGAUCACCCAUGUCUUCGGAGUCGAGGAUAUGGUCACUGUAAACAGUGGCCAGAAGGCGAGGAGC [SS1 - Son of Teenbexe v7] (puzzle: Same State 1) |  |  |  |  | 0.0464 |  |
| AAAGCAAUGGUACAGGAUAUGUACGGUCGUACAUGAGGAUCACCCAUGUCGCUGGAAAGGUAGAUACAGAAGGGUGCCCAUGCGU [Riintile] (puzzle: Same State 2) |  |  |  | 0.0344 | 0.161 | 0.21 |
| GGAGCCGGUACUGAGGAUAUUCAUUUUAAAACAUGAGGAUCACCCAUGUAGGCCAGAAGGCCUUGGGAGAAGGCAGACCAGCUCG [Atgexeedri - 6] (puzzle: Same State 2) |  |  |  | 0.0209 | 0.217 | 0.369 |
| UGAAUGAUGAUAGGAUAUACAUGAGGAAUCCUCGUAGAAGGAUCAUGACAUGAGGAUCACCCAUGUAGCGCUCCGUAGAGCGCA [JL SSNG1 1.20] (Eterna round: R96, puzzle: Same State NG 1) | 0.561 | 0.0307 | 0.151 |  |  |  |
| UUGAAGAAUUAAGGAUAUUGAAUACAUAUGUUUAACAUGAGGAUCACCCAUGUGGGUUGCGGUAUCGAGAAGGUAAAUUACUAG [JL SSNG2 1.49] (Eterna round: R96, puzzle: Same State NG 2) | 0.112 | 0.0763 | 0.119 |  |  |  |
| UAAACUUCUUUUAGUGUGUUGCGAGUGAAACAUGAGGAUCACCCAUGUAAAGGAUUGUGGUAUUUUGUUCGUCUUAA [JR_SHM208A_Sub075] (puzzle: Sensor for hsa-mir-208a) |  |  |  | 0.0752 | 0.0414 | 0.0988 |
| ACAUGAGAGAUAGGAUAUCUUGUACCUACAUGUGACAUGAGGAUCACCCAUGUGGUAAGUAUGAGAGAGAAGGAUCAGAUAUGU [Equivalence 36 - Jieux - Same State NG 2] (Eterna round: R96, puzzle: Same State NG 2) | 0.0141 | 0.0143 | 0.0212 |  |  |  |
| GGUAAACAUGAGGAUCACCCAUGUAAUAUAAUGGGAGGAUAUCUGAAUUAAUUAAAUUAAGGAGAAGGCCUAAUGU [Mat - Same State 1 - Mod of Eli - D50] (puzzle: Same State 1) |  |  |  | 0.0655 | 0.462 | 0.41 |
| UUGCUCGUGUGAGGAUAUGCAGCCGUUUCGGCUGCAGAAGGUACUAUAAUACAUGAGGAUCACCCAUGUCUCUGUUGUUUGGUG [salish99_SSNG1_r04_930] (Eterna round: R96, puzzle: Same State NG 1) | 0.0697 | 0.0494 | 0.0637 |  |  |  |
| UAAGAACAUGAGGAUCACCCAUGUGGAAAGAACACAGGAUAUCAUAGAAGGACGCGACUAUGAGAAGGGUGACACG [Lequat] (puzzle: Same State 1) |  |  |  | 0.39 | 0.104 | 0.218 |
| ACAAGCUUUUUUGUAGUGAAAGGUGGGAUACAUGAGGAUCACCCAUGUAUUGUUGUUAAUAUUGGACCUCGUCUUAU [JR_SHM208A_Sub084] (puzzle: Sensor for hsa-mir-208a) |  |  |  | 0.0221 | 0.0142 | 0.0225 |
| GCCAUCGCAUGAGGAUAUGGCACCGUUUCGGUGCCAGAAGGCAUGUCGAAUGACAUGAGGAUCACCCAUGUAGUAUAGAUGGCA [JL Fiskers NG1ss - 33 mod 10] (Eterna round: R96, puzzle: Same State NG 1) | 0.059 | 0.377 | 0.851 |  |  |  |

| Sequence | apparent KD of MS2 coat protein (input ligand: FMN 200 uM) [µM] | apparent KD of MS2 coat protein [1] [µM] | apparent KD of MS2 coat protein (input ligand: none) [µM] | apparent KD of MS2 coat protein [2] [µM] | apparent KD of MS2 coat protein [3] [µM] | apparent KD of MS2 coat protein [4] [µM] |
| --- | --- | --- | --- | --- | --- | --- |
| GAGGGACGGACGAACAUGAGGAUCACCCAUGUCCUCGGAGGUCAGGAUAUCCGGAGGUAGCCGAAGGAGAAGGGACGGUGAACC [AK SSNG3-V2-31.1] (Eterna round: R96, puzzle: Same State NG 3) | 0.104 | 0.0515 | 0.0857 |  |  |  |
| UUAAUAAAUCAAGGAUAUCACGUCGUUUAGACGUGAGAAGGUGAUCAUAACAUGAGGAUCACCCAUGUAUUACAUGAAUAUUAA [SSNG1/1-B3] (Eterna round: R96, puzzle: Same State NG 1) | 1.18 | 0.778 | 1.57 |  |  |  |
| GACAAUCUAUCUGAGGAUAUCAUGAAUAAAACAUGAGGAUCACCCAUGUGCAGGAUAACUGCAAAUGAGAAGGCAGAUAGAUUGU [Mat - Same State 2 - Mod - D7] (puzzle: Same State 2) |  |  |  | 0.0123 | 0.024 | 0.0277 |
| AAGCCUAAACGGCGAAAACGACAUGAGGAUCACCCAUGUACACAGGAUAUCAGCCUGCUACAGGCUGAGAAGGGUGAACCUAAA [Maisveon] (Eterna round: R96, puzzle: Same State NG 3) | 0.797 | 0.0638 | 0.113 |  |  |  |
| UGUUGUAUUACAGGAUAUCUAGUAUUUUUAUUAAGAGAAGGGUAUUCACAUGAGGAUCACCCAUGUAUAUACGAGGAAGUUGUG [JMF's solution 54] (Eterna round: R96, puzzle: Same State NG 1) |  | 0.0337 |  |  |  |  |
| UUUUCGAACCGAGGAUAUCCUUAUAAGAAACAUGAGGAUCACCCAUGUAAAGGGAAUUAUUUGUAGGAGAAGGCGGAUUUUGUU [JR_SSNG2_Sub054] (Eterna round: R96, puzzle: Same State NG 2) |  | 0.0339 |  |  |  |  |
| CUAACAACAGGUUGCAGUGCUCGUCUCUAACAUGAGGAUCACCCAUGUAAUAGCCCGGUGGAAGCGCUCGGGUCACC [Tearor] (puzzle: Sensor for hsa-mir-208a) |  |  |  | 0.0283 | 0.0345 | 0.0309 |
| GAGUUACAUGAGGAUCACCCAUGUGGUUGUGGAUAAGGAUAUAUGGUAGGAGGAGGAAUGAUAGAAGGUAUUAGGG [JR_SS1_Sub065] (puzzle: Same State 1) |  |  |  |  | 0.0529 |  |
| UGUUGUAUUACAGGAUAUCUAUUGUUUUUAUAUAGAGAAGGGUAUUCACAUGAGGAUCACCCAUGUAUAUACGAGGAAGUUGUG [JMF's solution 84] (Eterna round: R96, puzzle: Same State NG 1) |  | 0.0332 |  |  |  |  |
| AAAACAUGACGAGGAUAUGGUACAUGAGGAUCACCCAUGUAUGUACCACGACGGAAACGUCGAAUCCAGAAGGCGUCAUGAAAA [Mat - Same State NG 2 - JL mod - D25] (Eterna round: R96, puzzle: Same State NG 2) | 0.0346 | 0.173 | 0.194 |  |  |  |
| ACAUGAGGAUCACCCAUGUAACCAAGAGAGAGAGCACGGACGCAGGAUAUGCGGCGACGAGCGGAGCAGAAGGGCGCCUCAUAU [Alacarus NG 3 Attempt 1] (Eterna round: R96, puzzle: Same State NG 3) | 0.0793 | 0.052 | 0.109 |  |  |  |
| UGCUAGUGGGUAGGAUAUUUAGGAUAUGGGAAAGACUAAGUCUGUAGGUCACCUAACCCAGAAGGAGAGAAGGACCCUUCAGCU [pwkr ssNG2 2FMN + F9.28] (Eterna round: R96, puzzle: Same State NG 2) | 1.66 | 0.0139 | 0.0389 |  |  |  |
| AACAAUCUAUCUGAGGAUAUCAUGAUAAGAACAUGAGGAUCACCCAUGUGCAGGAAAACUGCAUAUGAGAAGGCAGAUAGAUUGG [Mat - Same State 2 - Mod - D19] (puzzle: Same State 2) |  |  |  | 0.0425 | 0.492 | 0.472 |
| UUAGAAUUGCAAGGAUAUCUAAUUUAGAUAGUAAGAGAAGGUGCUUUAUAGUUACAUGAGGAUCACCCAUGUUUUUUUUUUUAU [JR_SSNG1_Sub060] (Eterna round: R96, puzzle: Same State NG 1) | 0.0423 | 0.0363 | 0.0499 |  |  |  |
| AACAAUCUAUCUGAGGAUAUCAUGAAAAAAACAUGAGGAUCACCCAUGUGCAGGAAAACUGCAUAUGAGAAGGCAGAUAGAUUGU [salish99_SS2_r3_002] (Eterna round: R96, puzzle: Same State 2) |  | 0.48 |  |  |  |  |
| UUAUCACAUGAGGAUCACCCAUGUUAUACUUUUUUAGGAUAUUUUAUGUAUGACCAAAUAAAAGAAGGAGGAAUAA [flagellum_key_01] (puzzle: Same State 1) |  |  |  | 0.0312 | 0.0444 | 0.047 |
